Results taken from US20230340151A1 (Pfizer, published 2023).
Numbering of substitutions follows the chain as printed.

Key:
[1] = biological target: Human GUCY2c on tumor cells (T84, HT55) (human, UniProt P25092 24-1073); assay: cell-based or functional assay
[2] = biological target: T1, Human CD3 epsilon-delta (human); assay: direct ELISA, coated CD3 epsilon-delta
T1 construct: Single-chain epsilon-linker-delta with His6; also called huCD3
T1 chain: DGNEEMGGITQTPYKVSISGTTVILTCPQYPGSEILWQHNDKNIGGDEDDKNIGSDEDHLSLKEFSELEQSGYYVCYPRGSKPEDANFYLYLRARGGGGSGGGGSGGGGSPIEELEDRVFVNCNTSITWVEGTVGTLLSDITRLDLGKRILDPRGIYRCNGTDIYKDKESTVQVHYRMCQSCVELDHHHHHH

[3] = biological target: T1, Human CD3 epsilon-delta; assay: SPR, CD3 captured by anti-His, 25 C
[4] = biological target: T2, Cynomolgus CD3 epsilon-delta (cynomolgus); assay: SPR, printed anti-His capture, 25 C (Table 33D)
T2 chain: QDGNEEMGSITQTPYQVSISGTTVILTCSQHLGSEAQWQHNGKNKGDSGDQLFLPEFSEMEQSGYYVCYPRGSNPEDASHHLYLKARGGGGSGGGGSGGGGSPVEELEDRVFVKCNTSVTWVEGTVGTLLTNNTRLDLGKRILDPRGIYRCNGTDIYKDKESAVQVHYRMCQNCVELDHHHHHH

[5] = biological target: T2, Cynomolgus CD3 epsilon-delta; assay: SPR, CD3 captured by anti-His, printed 25 C (Table 33F)
[6] = biological target: T3, Human GUCY2C full length (SEQ ID NO: 224), recombinant protein (human, UniProt P25092 24-430, limits assumed); assay: SPR, GUCY2c directly immobilized, 37 C
T3 construct: also called huGUCY2C; biotinylated human GUCY2c

[7] = biological target: T4, Murine GUCY2C-ECD cleaved (mouse, UniProt Q3UWA6 20-433); assay: SPR, GUCY2c directly immobilized, 25 C
T4 sequence: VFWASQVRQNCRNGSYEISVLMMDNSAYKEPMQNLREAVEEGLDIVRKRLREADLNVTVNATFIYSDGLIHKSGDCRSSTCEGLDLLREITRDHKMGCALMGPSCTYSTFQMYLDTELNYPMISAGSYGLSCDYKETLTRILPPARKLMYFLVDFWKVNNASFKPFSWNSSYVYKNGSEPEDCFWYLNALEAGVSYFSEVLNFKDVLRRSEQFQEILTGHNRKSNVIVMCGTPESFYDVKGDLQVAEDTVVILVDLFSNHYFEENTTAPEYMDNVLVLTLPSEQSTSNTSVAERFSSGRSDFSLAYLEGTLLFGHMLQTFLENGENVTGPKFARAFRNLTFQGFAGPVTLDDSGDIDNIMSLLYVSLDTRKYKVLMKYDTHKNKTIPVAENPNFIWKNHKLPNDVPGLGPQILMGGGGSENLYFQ

[8] = biological target: T2, Cynomolgus CD3 epsilon-delta; assay: SPR, CD3 captured by anti-His, 25 C
[9] = biological target: T5, Purified human GUCY2c ECD (recombinant, construct not stated) (human, UniProt P25092 24-430); assay: direct ELISA, coated GUCY2c ECD
T5 construct: also called recombinant human GUCY2c; recombinant GUCY2c protein

[10] = biological target: T1, Human CD3 epsilon-delta; assay: SPR, anti-human IgG capture, 25 C
[11] = biological target: T4, Murine GUCY2C-ECD cleaved; assay: SPR, GUCY2c directly immobilized, 37 C
[12] = biological target: T1, Human CD3 epsilon-delta; assay: SPR, CD3 captured by anti-His, printed 25 C (Table 33C)
[13] = biological target: T6, Human GUCY2C ECD-muIgG2a (human); assay: sandwich ELISA: CD3 epsilon-delta coated, GUCY2c ECD-mIgG2a Fc in solution
T6 construct: also called human GUCY2c ECD-mouse IgG2a Fc fusion protein; huGUCY2c-mIgG2a

[14] = biological target: T7, Cynomolgus GUCY2C-ECD Cleaved (cynomolgus, UniProt P25092 24-430 (human entry)); assay: SPR, anti-human IgG capture, 25 C
T7 construct: also called CyGUCY2C
T7 chain: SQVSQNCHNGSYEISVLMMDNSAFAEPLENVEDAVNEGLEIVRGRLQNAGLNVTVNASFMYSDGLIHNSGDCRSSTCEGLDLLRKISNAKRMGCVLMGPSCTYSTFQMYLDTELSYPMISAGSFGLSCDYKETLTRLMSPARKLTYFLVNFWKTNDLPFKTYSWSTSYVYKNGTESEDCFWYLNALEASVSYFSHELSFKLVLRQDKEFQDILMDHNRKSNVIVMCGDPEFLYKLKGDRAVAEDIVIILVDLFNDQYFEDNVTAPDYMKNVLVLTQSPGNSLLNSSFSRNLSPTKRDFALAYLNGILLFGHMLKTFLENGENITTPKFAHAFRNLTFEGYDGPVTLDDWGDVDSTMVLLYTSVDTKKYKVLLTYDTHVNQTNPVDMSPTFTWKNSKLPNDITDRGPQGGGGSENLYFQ

[15] = biological target: T3, Human GUCY2C full length (SEQ ID NO: …); assay: SPR, anti-human IgG capture, 25 C
[16] = biological target: T7, Cynomolgus GUCY2C-ECD Cleaved; assay: SPR, GUCY2c directly immobilized, 37 C
[17] = biological target: T4, Murine GUCY2C-ECD cleaved; assay: SPR, anti-human IgG capture, 25 C
[18] = biological target: T7, Cynomolgus GUCY2C-ECD Cleaved; assay: SPR, GUCY2c directly immobilized, 25 C
[19] = biological target: T3, Human GUCY2C full length (SEQ ID NO: …); assay: SPR, GUCY2c directly immobilized, 25 C
[20] = biological target: T5, Purified human GUCY2c ECD (recombinant, …); assay: ELISA; column 'Direct huGUCY2C binding (nM)'
[21] = biological target: T3, Human GUCY2C full length (SEQ ID NO: …); assay: SPR, IgG captured by anti-human Fc

T3 sequence (P25092 24-430 F281L limits assumed): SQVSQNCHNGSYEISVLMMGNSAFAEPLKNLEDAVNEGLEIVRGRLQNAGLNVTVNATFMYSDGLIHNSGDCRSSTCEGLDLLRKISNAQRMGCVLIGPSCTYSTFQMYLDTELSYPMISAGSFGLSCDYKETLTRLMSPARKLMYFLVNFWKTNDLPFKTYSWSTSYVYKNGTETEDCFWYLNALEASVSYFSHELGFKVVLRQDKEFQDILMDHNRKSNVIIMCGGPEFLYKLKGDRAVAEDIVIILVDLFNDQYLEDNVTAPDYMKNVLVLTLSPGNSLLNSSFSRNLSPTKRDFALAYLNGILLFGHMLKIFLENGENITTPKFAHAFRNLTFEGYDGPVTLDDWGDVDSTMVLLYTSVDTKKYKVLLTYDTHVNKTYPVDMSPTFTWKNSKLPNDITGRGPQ
T5 sequence (P25092 24-430 limits assumed): as the sequence (P25092 24-430 F281L limits assumed) above, with L258F counted along it
T6 sequence (chain, as listed by the source limits assumed): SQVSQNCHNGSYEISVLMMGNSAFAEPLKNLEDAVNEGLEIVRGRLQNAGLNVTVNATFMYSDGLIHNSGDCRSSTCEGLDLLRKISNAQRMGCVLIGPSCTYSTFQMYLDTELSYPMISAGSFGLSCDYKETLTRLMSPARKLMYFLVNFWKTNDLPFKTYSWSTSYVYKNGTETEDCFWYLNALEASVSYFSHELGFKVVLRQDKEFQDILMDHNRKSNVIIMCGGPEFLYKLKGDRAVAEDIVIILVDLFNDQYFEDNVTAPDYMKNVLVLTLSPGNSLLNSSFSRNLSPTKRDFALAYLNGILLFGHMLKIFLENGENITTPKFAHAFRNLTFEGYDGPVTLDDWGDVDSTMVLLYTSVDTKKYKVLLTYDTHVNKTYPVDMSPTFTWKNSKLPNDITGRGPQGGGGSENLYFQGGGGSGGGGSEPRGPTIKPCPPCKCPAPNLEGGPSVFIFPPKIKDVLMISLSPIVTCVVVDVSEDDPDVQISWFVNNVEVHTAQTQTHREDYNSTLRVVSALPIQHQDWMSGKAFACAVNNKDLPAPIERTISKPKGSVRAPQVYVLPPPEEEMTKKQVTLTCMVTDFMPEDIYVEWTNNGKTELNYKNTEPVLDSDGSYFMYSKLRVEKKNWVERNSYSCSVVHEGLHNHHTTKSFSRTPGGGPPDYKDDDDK
Sequence of Human GUCY2c on tumor cells (T84, HT55) (P25092 24-1073 limits assumed): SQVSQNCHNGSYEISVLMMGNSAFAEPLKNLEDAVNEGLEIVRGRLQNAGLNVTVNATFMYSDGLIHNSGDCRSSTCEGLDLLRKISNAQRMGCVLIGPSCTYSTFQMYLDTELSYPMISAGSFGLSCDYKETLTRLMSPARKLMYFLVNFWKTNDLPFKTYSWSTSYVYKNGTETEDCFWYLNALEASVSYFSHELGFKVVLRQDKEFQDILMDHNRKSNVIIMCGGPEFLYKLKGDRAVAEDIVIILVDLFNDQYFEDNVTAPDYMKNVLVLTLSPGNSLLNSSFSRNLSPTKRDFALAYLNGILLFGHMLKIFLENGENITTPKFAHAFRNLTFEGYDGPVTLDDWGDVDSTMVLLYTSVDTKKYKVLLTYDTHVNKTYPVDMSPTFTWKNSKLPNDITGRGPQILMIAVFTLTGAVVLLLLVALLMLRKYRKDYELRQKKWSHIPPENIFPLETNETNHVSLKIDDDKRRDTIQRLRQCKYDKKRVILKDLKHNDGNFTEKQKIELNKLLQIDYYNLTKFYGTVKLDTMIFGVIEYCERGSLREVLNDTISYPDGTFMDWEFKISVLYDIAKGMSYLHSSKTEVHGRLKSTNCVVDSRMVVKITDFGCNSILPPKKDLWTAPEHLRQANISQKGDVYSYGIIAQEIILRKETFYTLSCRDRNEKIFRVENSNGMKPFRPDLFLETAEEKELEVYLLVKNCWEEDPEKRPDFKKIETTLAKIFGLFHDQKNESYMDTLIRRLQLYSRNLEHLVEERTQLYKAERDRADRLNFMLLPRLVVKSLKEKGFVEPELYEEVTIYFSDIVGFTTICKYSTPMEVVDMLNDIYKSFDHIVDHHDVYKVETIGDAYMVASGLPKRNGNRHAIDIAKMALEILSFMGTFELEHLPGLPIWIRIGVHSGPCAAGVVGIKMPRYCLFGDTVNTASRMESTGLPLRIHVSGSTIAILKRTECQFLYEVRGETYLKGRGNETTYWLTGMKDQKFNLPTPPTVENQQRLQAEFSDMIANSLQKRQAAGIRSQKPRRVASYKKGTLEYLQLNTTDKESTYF

B1: GUCY2C-0098 (bispecific antibody)
chain 1: DIVLTQSPASLAVSLGQRATISCRASESVDYYGTSLMQWYQQKPGQPPKLLIYAASNVESGVPARFSGSGSGTDFSLNIHPVEEDDIAMYFCQQTRKVYTFGGGTKLEIKGGGSGGGGEVQLVESGGGLVQPGGSLRLSCAASGFTFSDYYMTWVRQAPGKGLEWVAFIRNRARGYTSDHNPSVKGRFTISRDNAKNSLYLQMNSLRAEDTAVYYCARDRPSYYVLDYWGQGTTVTVSSGCPPCPAPEAAGAPSVFLFPPKPKDTLMISRTPEVTCVVVDVSHEDPEVKFNWYVDGVEVHNAKTKPREEQYNSTYRVVSVLTVLHQDWLNGKEYKCKVSNKALPAPIEKTISKAKGQPREPQVCTLPPSREEMTKNQVSLWCLVKGFYPSDIAVEWESNGQPENNYKTTPPVLDSDGSFFLYSKLTVDKSRWQQGNVFSCSVMHEALHNHYTQKSLSLSPG
chain 2: DIVMTQSPDSLAVSLGERATINCKSSQSLFNVRSRKNYLAWYQQKPGQPPKLLISWASTRESGVPDRFSGSGSGTDFTLTISSLQAEDVAVYYCKQSYDLFTFGSGTKLEIKGGGSGGGGQVQLQQPGAELVKPGASVKLSCKASGYTFTSYWMHWVKQRPGQGLEWIGEIKPSNGLTNYIEKFKNKATLTVDKSATTAYMQLSSLTAEDSAVYYCTRTITTTEGYWFFDVWGAGTTVTVSSGCPPCPAPEAAGAPSVFLFPPKPKDTLMISRTPEVTCVVVDVSHEDPEVKFNWYVDGVEVHNAKTKPREEQYNSTYRVVSVLTVLHQDWLNGKEYKCKVSNKALPAPIEKTISKAKGQPREPQVYTLPPCREEMTKNQVSLSCAVKGFYPSDIAVEWESNGQPENNYKTTPPVLDSDGSFFLVSKLTVDKSRWQQGNVFSCSVMHEALHNHYTQKSLSLSPG
notes: chimeric CD3-GUCY2c diabody-Fc, CD3-0004
With B1 the “T84 tumor cell EC50 (T cell cytotoxicity, E:T 10:1)” value [1] was 0.41 nM, the EC50 [2] was 7.24 nM and the Kd [3] was 4.75 nM. The koff [3] was 0.00524 s⁻¹, the kon [3] was 1.1e+06 M⁻¹ s⁻¹ and the Kd [4] was 3.56 nM. For the same binder, the koff [4] was 0.00101 s⁻¹, the kon [4] was 284000 M⁻¹ s⁻¹ and the Kd [5] was 19.3 nM. It also gave a koff [5] of 0.0442 s⁻¹, a kon [5] of 2.28e+06 M⁻¹ s⁻¹ and a Kd [6] of 15 nM. For the same binder, the koff [6] was 0.00377 s⁻¹, the kon [6] was 251000 M⁻¹ s⁻¹ and the Kd [7] was 20 nM. It also gave a koff [7] of 0.00268 s⁻¹, a kon [7] of 134000 M⁻¹ s⁻¹ and a Kd [8] of 4.94 nM. For the same binder, the koff [8] was 0.00478 s⁻¹, the kon [8] was 969000 M⁻¹ s⁻¹ and the EC50 [9] was 60.2 nM. The Kd [10] was 3.26 nM, the koff [10] was 0.000967 s⁻¹ and the kon [10] was 297000 M⁻¹ s⁻¹. It also gave a Kd [11] of 103 nM, a koff [11] of 0.0201 s⁻¹ and a kon [11] of 196000 M⁻¹ s⁻¹. For the same binder, the Kd [12] was 19.9 nM, the koff [12] was 0.0505 s⁻¹ and the kon [12] was 2.51e+06 M⁻¹ s⁻¹. For the same binder, the EC50 [13] was 186 nM, the Kd [14] was 3.93 nM and the koff [14] was 0.000524 s⁻¹. The kon [14] was 134000 M⁻¹ s⁻¹, the Kd [15] was 4.96 nM and the koff [15] was 0.000675 s⁻¹. The kon [15] was 136000 M⁻¹ s⁻¹, the Kd [16] was 8.52 nM and the koff [16] was 0.00264 s⁻¹. It also gave a kon [16] of 310000 M⁻¹ s⁻¹, a Kd [17] of 107 nM and a koff [17] of 0.00402 s⁻¹. For the same binder, the kon [17] was 37500 M⁻¹ s⁻¹, the Kd [18] was 2.8 nM and the koff [18] was 0.000577 s⁻¹. For the same binder, the kon [18] was 206000 M⁻¹ s⁻¹, the Kd [19] was 7.19 nM and the koff [19] was 0.00104 s⁻¹. It also gave a kon [19] of 145000 M⁻¹ s⁻¹.

B2: GUCY2C-0166 (antibody, human IgG1, V domains shown)
VH: EVQLVESGGGLVQPGGSLRLSCAASGYTFTTYWMQWVRQAPGKGLEWIGAIYPGDGMTTYTQKFKDRFTISADKAKNSAYLQMNSLRAEDTAVYYCVRKGMDYWGQGTLVTVSS
VL: DIQLTQSPSSLSASVGDRVTITCRASESVDNYGISFMNWFQQKPGKAPKLLIYAASNPGSGVPSRFSGSGSGTDFTLTISSLQPEDFATYYCQQSKEVPYTFGQGTKLEIK
notes: human IgG1
B2 gave an EC50 [20] of 0.0693 nM.

B3: GUCY2C-0179 (antibody, human IgG1, V domains shown)
VH: EVQLVESGGGLVQPGGSLRLSCAASGYSFTDYIMLWVRQAPGKGLEWIGNSNPYYGSTSYNLKFKGRFTISVDKAKNSAYLQMNSLRAEDTAVYYCARSGYYGSSPYWYFDVWGQGTMVTVSS
VL: DIQMTQSPSSLSASVGDRVTITCKSSQSLLYSSNQKNYLAWYQQKPGKSPKLLIYWASTRESGVPSRFSGSGSGTDFTLTISSLQPEDFATYYCQQYYSYPTFGGGTKVEIK
Work on B3 yielded an EC50 [20] of 5.14 nM.

B4: GUCY2C-0212 (antibody, human IgG1, V domains shown)
VH: EVQLVESGGGLVQPGGSLRLSCAASGYTFTSYWMHWVRQAPGKGLEWIGEIKPSNGLTNYIEKFKNRFTISRDNAKNSLYLQMNSLRAEDTAVYYCARTITTTEGYWFFDVWGQGTLVTVSS
VL: DIQLTQSPSSLSASVGDRVTITCRASESVDYYGTSLMQWYQQKPGKAPKLLIYAASNVESGVPSRFSGSGSGTDFTLTISSLQPEDFATYYCQQTRKVYTFGQGTKLEIK
With B4 the Kd [21] was 26 nM and the EC50 [20] was 0.769 nM.

B5: GUCY2C-0193 (antibody, human IgG1, V domains shown)
VH: B4 VH with R72V, N74K, L79A, A97T
VL: B4 VL with L4M
B5 was tested, and the EC50 [20] was 0.23 nM.

B6: GUCY2C-0210 (antibody, human IgG1, V domains shown)
VH: B4 VH with G49A
VL: B4 VL
For B6, the Kd [21] was 85.7 nM and the EC50 [20] was 8.96 nM.

B7: GUCY2C-0486 (antibody, human IgG1, kappa, V domains shown)
VH: B4 VH with Y60V, I61H, R72V, N74K, L79A, A97T
VL: DIQLTQSPSSLSASVGDRVTITCRASESVDYYGSSLLQWYQQKPGKAPKLLIYAASKLASGVPSRFSGSGSGTDFTLTISSLQPEDFATYYCQQTRKAYTFGQGTKLEIKR
In the case of B7, the Kd [21] is reported as 5.47 nM.

B8: GUCY2C-0241 (antibody, human IgG1, kappa, V domains shown)
VH: B4 VH with R72V, N74K, L79A, A97T
VL: B7 VL with S34T, L37M, K57N, L58V, A59E, A98V
notes: humanized IgG1; used as scFv on phage in the binary substitution library
With B8 the Kd [21] was 9.81 nM and the EC50 [20] was 0.161 nM.
